Data set [1] deals with Human serine racemase (human) (UniProt Q9GZT4).
Data set [2] shares this target. Nature of the data set: ITC; PSD-95 PDZ3 (600 uM, syringe) titrated into hSR (20 uM, cell); 25 °C, 50 mM HEPES pH 8.0; single-site model. Background: In ITC the heat of successive injections is recorded.
Data set [3] concerns the molecule itself. Nature of the data set: cross-linking; 0.1% (w/v) glutaraldehyde, 10 min, room temperature, 50 mM HEPES pH 8.0; 15 uM hSR and 30 uM PSD-95 PDZ3, together or each alone; SDS-PAGE.

As to “Third PDZ domain of postsynaptic density protein 95 (domain or fragment)”, the hSR activity (beta-elimination of L-serine, LDH-coupled assay), 0.44 uM hSR with 500 uM PSD-95 PDZ3, in the absence of ATP in data set [1] came to 22%. In data set [2], this molecule showed a Kd of 82 µM.

B1: Human serine racemase (enzyme, UniProt Q9GZT4 1-340, looked up)
chain: MCAQYCISFADVEKAHINIRDSIHLTPVLTSSILNQLTGRNLFFKCELFQKTGSFKIRGALNAVRSLVPDALERKPKAVVTHSSGNHGQALTYAAKLEGIPAYIVVPQTAPDCKKLAIQAYGASIVYCEPSDESRENVAKRVTEETEGIMVHPNQEPAVIAGQGTIALEVLNQVPLVDALVVPVGGGGMLAGIAITVKALKPSVKVYAAEPSNADDCYQSKLKGKLMPNLYPPETIADGVKSSIGLNTWPIIRDLVDDIFTVTEDEIKCATQLVWERMKLLIEPTAGVGVAAVLSQHFQTVSPEVKNICIVLSGGNVDLTSSITWVKQAERPASYQSVSV
notes: human serine racemase (EC 5.1.1.18), PLP-dependent homodimer; monomer 38 kDa; also called hSR; SR; source: E. coli BL21 CodonPlus (DE3)-RIL co-expressing GroEL and GroES, purified (TALON resin); not shown: His6, N-terminal, kept
Take B1: the binding result in data set [3] is reported as “binds”.

One may read the Kd as the concentration at which binding is half-saturated.

The values above are taken from publication PMC9105370, “Human Serine Racemase Weakly Binds the Third PDZ Domain of PSD-95” (International Journal of Molecular Sciences, 2022).
